Measurements from the Human Domainome abundance scans (Beltran et al. 2025).
± gives the uncertainty stated by the source.

B1: Retinoic acid receptor RXR-alpha, residues 132 to 208; numbered along this chain, P19793 (parent)
chain: KHICAICGDRSSGKHYGVYSCEGCKGFFKRTVRKDLTYTCRDNKDCLIDKRQRNRCQYCRYQKCLAMGMKREAVQEE

Variants of: B1
Assay: abundance fitness (aPCA) (normalised: wild type 0, dead -1); higher = more abundant; growth selection in yeast, the domain comes from the species named
Conditions: Homo sapiens

Row | Variant | abundance fitness
1 | Q75Y | -0.092 ± 0.036
2 | E76N | 0.022 ± 0.037
3 | E76C | 0.023 ± 0.044
4 | E76P | -0.054 ± 0.034
5 | K70I | 0.035 ± 0.064
6 | C24V | -0.917 ± 0.053
7 | C24N | -1.18 ± 0.11
8 | G26F | -0.138 ± 0.043
9 | G26P | -0.503 ± 0.058
10 | G26R | -0.018 ± 0.027
11 | G26D | 0.024 ± 0.04
12 | G26N | -0.123 ± 0.04
13 | C21H | -0.933 ± 0.079
14 | R71T | 0.019 ± 0.029
15 | R71L | 0.033 ± 0.024
16 | E77Q | -0.012 ± 0.055
17 | E77H | 0.02 ± 0.039
18 | R10G | -0.072 ± 0.026
19 | I3A | -0.229 ± 0.033
20 | I3E | -0.428 ± 0.066
21 | I3V | -0.3 ± 0.039
22 | I3S | -0.127 ± 0.029
23 | I3R | -0.218 ± 0.031
24 | R30A | -0.162 ± 0.041

Row | Variant | abundance fitness
25 | R30E | -0.041 ± 0.041
26 | R30G | -0.087 ± 0.029
27 | M69P | -0.856 ± 0.1
28 | M69K | -0.482 ± 0.074
29 | K14L | -0.094 ± 0.034
30 | Y58I | -0.551 ± 0.12
31 | K50D | 0.019 ± 0.06
32 | K50H | -0.029 ± 0.072
33 | K50R | -0.026 ± 0.037
34 | G23D | 0.049 ± 0.035
35 | G23K | -0.128 ± 0.033
36 | D49K | 0.026 ± 0.076
37 | D49W | 0.06 ± 0.049
38 | D49H | -0.011 ± 0.19
39 | D49A | 0.009 ± 0.044
40 | D49L | -0.102 ± 0.049
41 | D49C | -0.117 ± 0.075
42 | Y38S | -0.031 ± 0.039
43 | Y38L | 0.012 ± 0.036
44 | Y38Q | -0.041 ± 0.045
45 | Y38R | -0.11 ± 0.031
46 | C7S | -0.944 ± 0.067
47 | C7N | -0.728 ± 0.07
48 | C40A | -0.602 ± 0.054

Row | Variant | abundance fitness
49 | C40L | -0.454 ± 0.05
50 | C40W | -0.832 ± 0.089
51 | C40N | -0.732 ± 0.15
52 | C40P | -0.591 ± 0.082
53 | E72A | -0.022 ± 0.12
54 | E72Q | -0.042 ± 0.14
55 | E72I | 0.046 ± 0.15
56 | E72R | -0.017 ± 0.084
57 | V74H | -0.021 ± 0.034
58 | V74T | 0 ± 0.032
59 | V74G | -0.028 ± 0.036
60 | S11E | -0.072 ± 0.035
61 | S11R | -0.162 ± 0.025
62 | S11Q | -0.101 ± 0.032
63 | S11V | -0.179 ± 0.027
64 | Q57V | -0.04 ± 0.034
65 | Q57P | 0.032 ± 0.049
66 | A66D | 0.031 ± 0.035
67 | A66Q | -0.031 ± 0.045
68 | Y16L | -0.035 ± 0.024
69 | Y16G | 0.015 ± 0.025
70 | L65S | -0.061 ± 0.035
71 | V18N | -0.574 ± 0.12
72 | V18G | 0.013 ± 0.035

Row | Variant | abundance fitness
73 | V18L | -0.141 ± 0.029
74 | V18F | -0.144 ± 0.044
75 | V18P | -0.18 ± 0.038
76 | F28K | -1.13 ± 0.2
77 | F28T | -0.894 ± 0.12
78 | F28W | -0.024 ± 0.036
79 | R33P | -0.143 ± 0.034
80 | R33C | -0.287 ± 0.04
81 | R33T | -0.012 ± 0.032
82 | R33V | 0.018 ± 0.029
83 | R33K | 0.05 ± 0.041
84 | R33W | -0.002 ± 0.043
85 | T39P | 0.027 ± 0.05
86 | T39N | 0.03 ± 0.07
87 | T37E | 0.052 ± 0.035
88 | T37I | -0.016 ± 0.064
89 | G68E | -0.112 ± 0.057
90 | G68T | -0.357 ± 0.036
91 | G68R | -0.238 ± 0.038
92 | G68H | -0.103 ± 0.035
93 | R41H | 0.06 ± 0.033
94 | R41W | -0.007 ± 0.057
95 | R41D | 0.056 ± 0.038
96 | R41P | 0.059 ± 0.029

Row | Variant | abundance fitness
97 | G8K | -0.053 ± 0.05
98 | G8S | -0.041 ± 0.03
99 | V32K | -0.012 ± 0.039
100 | D9A | -0.091 ± 0.037
101 | D9H | -0.214 ± 0.034
102 | Y61N | 0.101 ± 0.16
103 | N43Y | -0.043 ± 0.061
104 | N43S | 0.019 ± 0.042
105 | N43E | 0.053 ± 0.04
106 | N43T | 0.049 ± 0.046
107 | T31Y | -0.094 ± 0.035
108 | T31L | -0.136 ± 0.025
109 | T31E | -0.188 ± 0.038
110 | L47Y | -0.03 ± 0.062
111 | L47R | -0.109 ± 0.029
112 | L47N | -0.098 ± 0.076
113 | L47I | -0.002 ± 0.065
114 | L47G | 0.016 ± 0.027
115 | K1E | -0.117 ± 0.058
116 | L36C | 0.087 ± 0.053
117 | L36E | 0.021 ± 0.039
118 | G17F | -0.088 ± 0.1
119 | G17P | -0.277 ± 0.052
120 | G17W | -0.163 ± 0.035

Row | Variant | abundance fitness
121 | H2P | -0.453 ± 0.063
122 | H2T | -0.026 ± 0.052
123 | H2S | 0.011 ± 0.043
124 | H2G | -0.005 ± 0.031
125 | H2K | 0.096 ± 0.047
126 | S20E | -0.202 ± 0.031
127 | S20P | -0.09 ± 0.03
128 | S20C | 0.049 ± 0.031
129 | S12K | 0.137 ± 0.056
130 | S12D | 0.001 ± 0.053
131 | S12H | -0.131 ± 0.082
132 | G13W | -0.659 ± 0.073
133 | G13A | 0.02 ± 0.035
134 | G13S | -0.121 ± 0.046
135 | G13T | -0.005 ± 0.049
136 | C59L | -0.911 ± 0.1
137 | C59Y | -0.418 ± 0.11
138 | M67R | 0 ± 0.026
139 | H15A | -0.13 ± 0.028
140 | H15K | -0.138 ± 0.034
141 | C4E | -0.866 ± 0.11
142 | Y19A | -0.036 ± 0.033
143 | E22H | -0.104 ± 0.06
144 | E22N | -0.079 ± 0.066

Row | Variant | abundance fitness
145 | R51K | 0.082 ± 0.08
146 | R51E | -0.005 ± 0.046
147 | R51M | -0.025 ± 0.051
148 | A5N | -0.022 ± 0.055
149 | A5M | 0.036 ± 0.048
150 | A5W | 0.03 ± 0.042
151 | C46Y | -0.383 ± 0.086
152 | C46R | -0.301 ± 0.035
153 | C46Q | -0.288 ± 0.067
154 | C46I | -0.436 ± 0.099
155 | A73F | -0.01 ± 0.031
156 | A73M | 0.044 ± 0.037
157 | A73E | -0.011 ± 0.051
158 | A73D | 0.048 ± 0.047
159 | A73T | 0.009 ± 0.029
160 | A73Q | -0.04 ± 0.042
161 | A73V | -0.019 ± 0.032
162 | K29L | 0.009 ± 0.037
163 | R53L | -0.041 ± 0.029
164 | R53A | -0.008 ± 0.033
165 | D45P | -0.078 ± 0.057
166 | D45I | -0.123 ± 0.13
167 | K44G | 0.052 ± 0.028
